From patent US20130164214A1

Legend:
CD20 = CD20 (UniProt P11836); experiment: cell-based or functional assay
[1] = target: CD74 (invariant chain, Ii) (human) (UniProt P04233); experiment: cell-based or functional assay
Sequence of CD74 (invariant chain, Ii) (human) (P04233 whole entry, change not shown): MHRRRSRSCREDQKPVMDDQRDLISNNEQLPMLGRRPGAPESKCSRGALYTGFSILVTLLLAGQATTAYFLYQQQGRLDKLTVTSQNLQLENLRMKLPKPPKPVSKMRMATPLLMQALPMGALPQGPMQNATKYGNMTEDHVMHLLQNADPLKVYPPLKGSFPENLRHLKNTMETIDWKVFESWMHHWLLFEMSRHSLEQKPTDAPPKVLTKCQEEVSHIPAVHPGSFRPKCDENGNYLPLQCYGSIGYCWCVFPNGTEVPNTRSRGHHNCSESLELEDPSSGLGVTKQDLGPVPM

Sequence of CD20 (P11836 whole entry): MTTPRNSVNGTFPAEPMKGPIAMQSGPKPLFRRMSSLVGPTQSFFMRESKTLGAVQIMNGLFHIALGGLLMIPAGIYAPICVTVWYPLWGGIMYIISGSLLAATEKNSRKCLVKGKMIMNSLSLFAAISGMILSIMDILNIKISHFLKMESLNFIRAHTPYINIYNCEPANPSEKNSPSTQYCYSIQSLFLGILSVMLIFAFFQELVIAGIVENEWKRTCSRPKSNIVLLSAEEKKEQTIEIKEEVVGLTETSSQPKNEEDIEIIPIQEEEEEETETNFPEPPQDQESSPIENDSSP

Substance | in vitro cytotoxicity EC50, Daudi and Ramos NHL cell lines (CD20) [nM] | in vitro cytotoxicity EC50, Jeko-1 mantle cell lymphoma line (CD20) [nM] | reduction of live B cells in human PBMCs after 3 days with antibody, flow cytometry [1] [%] | reduction of live mDC2 in human PBMCs after 3 days with antibody, flow cytometry [1] [%]
20-Rap (hA20 IgG-AD2 with four copies of Rap-DDD2) | 0.1 | 0.02 |  | 
milatuzumab (humanized anti-CD74 LL1 antibody) |  |  | 22 | 53.8
